Laboratory results taken from publication PMC3554688, “Potassium and Ionic Strength Effects on the Conformational and Thermal Stability of Two Aldehyde Dehydrogenases Reveal Structural and Functional Roles of K^+-Binding Sites” (PLoS ONE, 2013).

B1: betaine aldehyde dehydrogenase from spinach (Spinacia oleracea) (enzyme)
chain: MAFPIPARQLFIDGEWREPIKKNRIPVINPSTEEIIGDIPAATAEDVEVAVVAARRAFRRNNWSATSGAHRATYLRAIAAKITEKKDHFVKLETIDSGKPFDEAVLDIDDVASCFEYFAGQAEALDGKQKAPVTLPMERFKSHVLRQPLGVVGLISPWNYPLLMATWKIAPALAAGCTAVLKPSELASVTCLEFGEVCNEVGLPPGVLNILTGLGPDAGAPLVSHPDVDKIAFTGSSATGSKVMASAAQLVKPVTLELGGKSPIVVFEDVDIDKVVEWTIFGCFWTNGQICSATSRLLVHESIAAEFVDKLVKWTKNIKISDPFEEGCRLGPVISKGQYDKIMKFISTAKSEGATILYGGSRPEHLKKGYYIEPTIVTDISTSMQIWKEEVFGPVLCVKTFSSEDEAIALANDTEYGLAAAVFSNDLERCERITKALEVGAVWVNCSQPCFVQAPWGGIKRSGFGRELGEWGIQNYLNIKQVTQDISDEPWGWYKS
notes: betaine aldehyde dehydrogenase (BADH, ALDH10) of Spinacia oleracea; recombinant; Homodimer in K-buffer; associates into tetramers in the non-salt buffer; also called SoBADH; ALDH10; source: E. coli, purified to homogeneity
B2: betaine aldehyde dehydrogenase from Pseudomonas aeruginosa (enzyme)
chain: MARFEEQKLYIGGRYVEASSGATFETINPANGEVLAKVQRASREDVERAVQSAVEGQKVWAAMTAMQRSRILRRAVDILRERNDELAALETLDTGKPLAETRSVDIVTGADVLEYYAGLVPAIEGEQIPLRETSFVYTRREPLGVVAGIGAWNYPVQIALWKSAPALAAGNAMIFKPSEVTPLTALKLAEIYTEAGVPDGVFNVLTGSGREVGQWLTEHPLIEKISFTGGTSTGKKVMASASSSSLKEVTMELGGKSPLIIFPDADLDRAADIAVMANFFSSGQVCTNGTRVFIHRSQQARFEAKVLERVQRIRLGDPQDENTNFGPLVSFPHMESVLGYIESGKAQKARLLCGGERVTDGAFGKGAYVAPTVFTDCRDDMTIVREEIFGPVMSILVYDDEDEAIRRANDTEYGLAAGVVTQDLARAHRAIHRLEAGICWINTWGESPAEMPVGGYKQSGVGRENGLTTLAHYTRIKSVQVELGDYASVF
notes: betaine aldehyde dehydrogenase (BADH, ALDH9) of Pseudomonas aeruginosa; recombinant; Homotetramer; also called PaBADH; ALDH9; source: E. coli, purified to homogeneity

Columns and labels:
[1] = molecular target: the molecule itself; experiment: dynamic light scattering; 20°C; K-buffer (non-salt buffer plus 250 mM KCl); 0.25 mg/ml enzyme
[2] = molecular target: the molecule itself; experiment: dynamic light scattering; 20°C; non-salt buffer (1 mM PIPES-TEA hydroxide pH 6.9, 1 mM EDTA, 0.5 mM DTT); 0.25 mg/ml enzyme; for SoBADH: dimers to tetramer
[3] = molecular target: the molecule itself; experiment: SEC; Superdex 200 HR 10/30, room temperature; K-buffer (1 mM PIPES-TEA hydroxide pH 6.9, 1 mM EDTA, 0.5 mM DTT, 250 mM KCl); 0.25 mg/ml protein

| Protein | stoichiometry N [1] | stoichiometry N [2] | stoichiometry N [3] |
| --- | --- | --- | --- |
| B1 | 2 | 4 |  |
| B2 |  |  | 4 |
